# PMC12357932 (Nature Communications, 2025)
# B1: C-terminal domain of F-BclA (F-BclA-CTD; BTK_RS34675 residues 721-863) (domain or fragment)
# chain: MHHHHHHSVGLTNYLYVFDTTNQSIAVGSSVTFNTNGPITGTALSHITGTGNIIINTLGTYVAEFQLQASRENQFSLELNGTPIPGGRFGTGSPHSINQGTAAFTVTVVPSTLTLINNTSSAGTITLSNSDGGSLTNVSASISIFQVG
# Columns and labels:
# [1] = molecular target: ExsF with the first 23 residues replaced by an N-terminal 6xHis tag (B. paranthracis); experiment: crystal structure
# crystal structure = molecular target: the molecule itself; experiment: crystal structure
Molecule,stoichiometry N [1],stoichiometry N (crystal structure)
ExsF with the first 23 residues replaced by an N-terminal 6xHis tag (domain or fragment),3,–
B1,–,3
